This series can be described thus: Conversion rate of substrate compound A by E. coli expressing each engineered protein (HPLC, oxygenase activity). It counts as biochemical. From the text:
The high-throughput bacterial protein expression was achieved by cloning the synthesized gene that encodes each engineered protein into a bacterial expression vector with a C-terminal histidine tag (His-tag). The vectors were transformed into Escherichia coli (E. coli), and expression of the engineered proteins was induced. E. coli cultures were selected and cultured in centrifuge tubes overnight, meanwhile, added with substrates and IPTG, and the cultures were centrifuged to pellet the bacteria the next day. Alternatively, E. coli cultures were selected and cultured in centrifuge tubes overnight, and centrifuged to pellet the bacteria after adding substrates for reaction the next day. The supernatant of reaction solution was pipetted into a 96-well plate and the absorbance at 510 nm from 4-aminoantipyrine and potassium ferricyanide was measured by an endpoint colorimetric method to detect phenol products. Substrate reduction and product yield were measured by high performance liquid chromatography (HPLC) to detect the oxygenase activity (i.e., enzymatic activity) of the engineered proteins, and the activities of the proteins were compared by calculating conversion rates.
Conversion rate=(Peak area of initial substrate−Peak area of substrate after reaction)/Peak area of initial substrate*100%

[1] abbreviates: Reaction condition 1: bacteria cultured overnight, substrate compound A and IPTG added to react overnight.
Setting [2] is: Reaction condition 2: bacteria cultured overnight, 8 times dose of substrate compound A of condition 1 added, react 3 hours the next day.

B1: SEQ ID NO: 10 (protein)
chain: MHAALSPLSQRFERIAVQPLTGVLGAEITGVDLREPLDDSTWNEILDAFHTYQVIYFPGQAITNEQHIAFSRRFGPVDPVPHLKSIEGYPEVQMIRREANESGRVIGDDWHTDSTFLDAPPAAVVMRAIDVPEHGGDTGFLSMYTAWETLSPTMQATIEGLNVVHSATRVFGSLYQAQNRRFSNTSMKVMDVDAGDRETVHPLVVTHPGSGRKGLYVNQVYCQRIEGMTDAESKPLLQFLYEHATRFDFTCRVRWKKDQVLVWDNLCTMHRAVPDYAGKFRYLTRTTVGGVRPAR
For the molecule B1, the Conversion rate under setting [1] was 94.1%.

B2: SEQ ID NO: 62 (protein)
chain: MHAALSPLSQRFERIAVQPLTGVLGAEITGVDLREPLDDSTWNEILDAFHTYQVIYFPGQAITNEQHIAFSRRFGPVDPVPHLKSIEGYPEVQMIRREANESGGVIGCDWHTDSTFLDAPPAAVVMRAIDVPEHGGDTGFLSMYTAWETLSPTMQATIEGLNVVHSATRVFGSLYQAQNRRWSNTSLKVMDVDAGDRETVHPLVVTHPGSGRKGLYVNQVYCQRIEGMTDAESKPLLQFLYEHATRFDFTCRVRWKKDQVLVWDNLCTMHRAVPDYAGKFRYLTRTTVGGVRPAR
With B2, under setting [1], the Conversion rate was determined as 90%.

B3: SEQ ID NO: 66 (protein)
chain: MHAALSPLSQRFERIAVQPLTGVLGAEITGVDLREPLDDSTWNEILDAFHTYQVIYFPGQAITNEQHIAFSRRFGPVDPVPHLKSIEGYPEVQMIRREANESGGVIGDEWHTDSTFLDAPPAAVVMRAIDVPEHGGDTGFLSMYTAWETLSPTMQATIEGLNVVHSATRVFGSLYQAQNRRWSNTSLKVMDVDAGDRETVHPLVVTHPGSGRKGLYVNQVYCQRIEGMTDAESKPLLQFLYEHATRFDFTCRVRWKKDQVLVWDNLCTMHRAVPDYAGKFRYLTRTTVGGVRPAR
On to B3, for which, under setting [1], the Conversion rate amounted to 94%.

B4: SEQ ID NO: 90 (protein)
chain: MHAALSPLSQRFERIAVQPLTGVLGAEITGVDLREPLDDSTWNEILDAFHTYQVIYFPGQAITNEQHIAFSRRFGPVDPVPHLKSIEGYPEVQMIRREANESLRVIGDDWHTDSTFLDAPPAAVVMRAIDVPEHGGDTGFLSMYTAWETLSPTMQATIEGLNVVHSATRVFGSLYQAQNLRWSNTSLKVMDVDAGDRETVHPLVVTHPGSGRKGLYVNQVYCQRIEGMTDAESKPLLQFLYEHATRFDFTCRVRWKKDQVLVWDNLCTMHRAVPDYAGKFRYLTRTTVGGVRPAR
B4: the Conversion rate under setting [2] turned out to be 57.5%.

B5: SEQ ID NO: 22 (protein)
chain: MHAALSPLSQRFERIAVQPLTGVLGAEITGVDLREPLDDSTWNEILDAFHTYQVIYFPGQAITNEQHIAFSRRFGPVDPVPHLKSIEGYPEVQMIRREANESGDVIGDDWHTDSTFLDAPPAAVVMRAIDVPEHGGDTGFLSMYTAWETLSPTMQATIEGLNVVHSATRVFGSLYQAQNRRFSNTSLKVMDVDAGDRETVHPLVVTHPGSGRKGLYVNQVYCQRIEGMTDAESKPLLQFLYEHATRFDFTCRVRWKKDQVLVWDNLCTMHRAVPDYAGKFRYLTRTTVGGVRPAR
The molecule B5 returned a Conversion rate under setting [1] of 95.5%.

B6: SEQ ID NO: 18 (protein)
chain: MHAALSPLSQRFERIAVQPLTGVLGAEITGVDLREPLDDSTWNEILDAFHTYQVIYFPGQAITNEQHIAFSRRFGPVDPVPHLKSIEGYPEVQMIRREANESGAVIGDDWHTDSTFLDAPPAAVVMRAIDVPEHGGDTGFLSMYTAWETLSPTMQATIEGLNVVHSATRVFGSLYQAQNRRFSNTSLKVMDVDAGDRETVHPLVVTHPGSGRKGLYVNQVYCQRIEGMTDAESKPLLQFLYEHATRFDFTCRVRWKKDQVLVWDNLCTMHRAVPDYAGKFRYLTRTTVGGVRPAR
In the case of B6, the Conversion rate under setting [1] was 92.1%.

B7: SEQ ID NO: 14 (protein)
chain: MHAALSPLSQRFERIAVQPLTGVLGAEITGVDLREPLDDSTWNEILDAFHTYQVIYFPGQAITNEQHIAFSRRFGPVDPVPHLKSIEGYPEVQMIRREANESGRVIGDDWHTDSTFLDAPPAAVVMRAIDVPEHGGDTGFLSMYTAWETLSPTMQATIEGLNVVHSATRVFGSLYQAQNRRFSNTSIKVMDVDAGDRETVHPLVVTHPGSGRKGLYVNQVYCQRIEGMTDAESKPLLQFLYEHATRFDFTCRVRWKKDQVLVWDNLCTMHRAVPDYAGKFRYLTRTTVGGVRPAR
In turn, B7 gave a Conversion rate under setting [1] of 76.8%.

B8: SEQ ID NO: 34 (protein)
chain: MHAALSPLSQRFERIAVQPLTGVLGAEITGVDLREPLDDSTWNEILDAFHTYQVIYFPGQAITNEQHIAFSRRFGPVDPVPHLKSIEGYPEVQMIRREANESLRVIGDDWHTDSTFLDAPPAAVVMRAIDVPEHGGDTGFLSMYTAWETLSPTMQATIEGLNVVHSATRVFGSLYQAQNRRFSNTSLKVMDVDAGDRETVHPLVVTHPGSGRKGLYVNQVYCQRIEGMTDAESKPLLQFLYEHATRFDFTCRVRWKKDQVLVWDNLCTMHRAVPDYAGKFRYLTRTTVGGVRPAR
For B8, the Conversion rate under setting [1] is on record as 90%.

B9: SEQ ID NO: 110 (protein)
chain: MHAALSPLSQRFERIAVQPLTGVLGAEITGVDLREPLDDSTWNEILDAFHTYQVIYFPGQAITNEQHIAFSRRFGPVDPVPHLKSIEGYPEVQMIRREANESLRVIGDDWHMDSTFLDAPPAAVVMRAIDVPEHGGDTGFLSMYTAWETLSPTMQATIEGLNVVHSATRVFGSLYQAQNRRWSNTSLKVMDVDAGDRETVHPLVVTHPGSGRKGLYVNQVYCQRIEGMTDAESKPLLQFLYEHATRFDFTCRVRWKKDQVLVWDNLCTMHRAVPDYAGKFRYLTRTTVGGVRPAR
As for B9, the Conversion rate under setting [2] was 54.6%.

B10: SEQ ID NO: 74 (protein)
chain: MHAALSPLSQRFERIAVQPLTGVLGAEITGVDLREPLDDSTWNEILDAFHTYQVIYFPGQAITNEQHIAFSRRFGPVDPVPHLKSIEGYPEVQMIRREANESGGVIGDDWHTDSTFLDAPPAAVVMRAIDVPEHGGDTGFLSMYTAWETLSPTMQATIEGLNVVHSATRVFGSLYQAQNRRWSNTSLKVMDVDAGDRETVHPLVVTHPGSGRKGLYVNPVYCQRIEGMTDAESKPLLQFLYEHATRFDFTCRVRWKKDQVLVWDNLCTMHRAVPDYAGKFRYLTRTTVGGVRPAR
B10 displayed a Conversion rate under setting [1] of 97.2%.

B11: SEQ ID NO: 114 (protein)
chain: MHAALSPLSQRFERIAVQPLTGVLGAEITGVDLREPLDDSTWNEILDAFHTYQVIYFPGQAITNEQHIAFSRRFGPVDPVPHLKSIEGYPEVQMIRREANESLRVIGDDWHTDSTFLDAPPAAVVMRAIDVPEHGGDTGFLSMYTAWETLSPTMQATIEGLNVVHSATRVFGSLYQAQNRRWSNTSLKVMDVDAGDRETVHPLVVTHPGSGRKGLYVNQVYCQRIEGMTDAESKPLLQFLYEHATRYDFTCRVRWKKDQVLVWDNLCTMHRAVPDYAGKFRYLTRTTVGGVRPAR
For the molecule B11, under setting [2], the Conversion rate turned out to be 53%.

B12: SEQ ID NO: 30 (protein)
chain: MHAALSPLSQRFERIAVQPLTGVLGAEITGVDLREPLDDSTWNEILDAFHTYQVIYFPGQAITNEQHIAFSRRFGPVDPVPHLKSIEGYPEVQMIRREANESGRVIGDDWHTDSTFLDAPPAAVVMRAIDVPEHGGDTGFLSMYTAWETLSPTMQATIEGLNVVHSATRVFGSLYQAQNRRWSNTSLKVMDVDAGDRETVHPLVVTHPGSGRKGLYVNQVYCQRIEGMTDAESKPLLQFLYEHATRFDFTCRVRWKKDQVLVWDNLCTMHRAVPDYAGKFRYLTRTTVGGVRPAR
For B12, the Conversion rate under setting [1] turned out to be 96.5%.

B13: SEQ ID NO: 70 (protein)
chain: MHAALSPLSQRFERIAVQPLTGVLGAEITGVDLREPLDDSTWNEILDAFHTYQVIYFPGQAITNEQHIAFSRRFGPVDPVPHLKSIEGYPEVQMIRREANESGGVIGDDWHTDSTFLDAPPAAVVMRAIDVPEHGGDTGFLSMYTAWETLSPTMQATIEGLNVVHSATRVFGSLYQAQNRRWSNTSLKVMDVDAGDRETVHPLVVTHPGSGRKGLYVNCVYCQRIEGMTDAESKPLLQFLYEHATRFDFTCRVRWKKDQVLVWDNLCTMHRAVPDYAGKFRYLTRTTVGGVRPAR
On to B13, for which the Conversion rate under setting [1] came to 94%.

B14: SEQ ID NO: 94 (protein)
chain: MHAALSPLSQRFERIAVQPLTGVLGAEITGVDLREPLDDSTWNEILDAFHTYQVIYFPGQAITNEQHIAFSRRFGPVDPVPHLKSIEGYPEVQMIRREANESLRVIGDDWHTDSTFLDAPPAAVVMRAIDVPEHGGDTGFLSMYTAWETLSPTMQATIEGLNVVHSATRVFGSLYQAQNWRWSNTSLKVMDVDAGDRETVHPLVVTHPGSGRKGLYVNQVYCQRIEGMTDAESKPLLQFLYEHATRFDFTCRVRWKKDQVLVWDNLCTMHRAVPDYAGKFRYLTRTTVGGVRPAR
Under setting [2], B14 returned a Conversion rate of 63.2%.

B15: SEQ ID NO: 26 (protein)
chain: MHAALSPLSQRFERIAVQPLTGVLGAEITGVDLREPLDDSTWNEILDAFHTYQVIYFPGQAITNEQHIAFSRRFGPVDPVPHLKSIEGYPEVQMIRREANESGLVIGDDWHTDSTFLDAPPAAVVMRAIDVPEHGGDTGFLSMYTAWETLSPTMQATIEGLNVVHSATRVFGSLYQAQNRRFSNTSLKVMDVDAGDRETVHPLVVTHPGSGRKGLYVNQVYCQRIEGMTDAESKPLLQFLYEHATRFDFTCRVRWKKDQVLVWDNLCTMHRAVPDYAGKFRYLTRTTVGGVRPAR
B15 came in with a Conversion rate under setting [1] of 96.8%.
